B1: FLT3 ligand Leu27Asp mutant (FL_(L27D)), as produced (ligand)
chain: TQDCSFQHSPISSDFAVKIRELSDYLDQDYPVTVASNLQDEELCGGLWRLVLAQRWMERLKTVAGSKMQGLLERVNTEIHFVTKCAFQPPPSCLRFVQTNISRLLQETSEQLVALKPWITRQNFSRCLELQCQP

Experiments:
[1] = target: wild-type FLT3 ligand (FLWT); test: SEC-MALS; ligand mixed with FLT3_(D1-D5) (20% molar excess of FL_(L27D)); Superdex 200 Increase, HBS (20 mM HEPES pH 7.4, 150 mM NaCl), 0.5 ml/min, 25 °C; glycoprotein conjugate analysis; N for FLWT counts FLT3 molecules for each dimeric FLWT
[2] = target: human FLT3 domains 1-5 (FLT3_(D1-D5)) (human) (UniProt P36888); test: as above

Row | Molecule | stoichiometry N [1] | stoichiometry N [2]
1 | human FLT3 domains 1-5 (FLT3_(D1-D5)) (from UniProt P36888 27-541) (domain or fragment) | 2 | 
2 | B1 |  | 1
